Data: article PMC5600425
Read-outs that look alike come from different tables or passages of the source.

How the values were obtained:
AgrA [1] = molecular target: T1, AgrA (Staphylococcus aureus COL, UniProt Q5HEG2 1-238); experiment: competition
T1 sequence: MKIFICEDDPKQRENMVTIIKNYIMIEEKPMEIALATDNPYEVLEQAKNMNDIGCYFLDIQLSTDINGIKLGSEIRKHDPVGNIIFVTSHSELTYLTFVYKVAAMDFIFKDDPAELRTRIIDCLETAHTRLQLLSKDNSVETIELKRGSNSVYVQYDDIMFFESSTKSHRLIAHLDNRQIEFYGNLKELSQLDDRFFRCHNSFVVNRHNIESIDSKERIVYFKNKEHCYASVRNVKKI

AgrA~P [2] = molecular target: T2, AgrA~P (Staphylococcus aureus COL, UniProt Q5HEG2 1-238); experiment: competition
T2 sequence: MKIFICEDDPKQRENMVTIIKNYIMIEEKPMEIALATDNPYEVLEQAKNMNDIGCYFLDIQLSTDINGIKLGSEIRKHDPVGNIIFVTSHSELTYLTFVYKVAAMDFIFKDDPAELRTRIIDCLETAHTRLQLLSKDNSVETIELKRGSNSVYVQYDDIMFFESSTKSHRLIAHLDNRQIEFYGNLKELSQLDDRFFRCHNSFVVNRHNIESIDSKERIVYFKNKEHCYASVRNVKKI

AgrA DBD (LytTR domain) [3] = molecular target: T3, AgrA DBD (LytTR domain) (Staphylococcus aureus, UniProt Q5HEG2 138-238); experiment: X-ray crystallography
T3 sequence: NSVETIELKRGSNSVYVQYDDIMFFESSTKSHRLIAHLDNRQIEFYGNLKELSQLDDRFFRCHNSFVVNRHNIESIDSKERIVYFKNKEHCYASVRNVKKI

AgrA~P [4] = molecular target: T2, AgrA~P; experiment: SPR
AgrA [5] = molecular target: T1, AgrA; experiment: SPR
AgrA DBD (LytTR domain) [6] = molecular target: T3, AgrA DBD (LytTR domain); experiment: X-ray crystallography; remark: listed apart in the source
AgrA DBD (LytTR domain) [7] = molecular target: T3, AgrA DBD (LytTR domain); experiment: X-ray crystallography; remark: listed apart in the source
AgrA DBD (LytTR domain) [8] = molecular target: T3, AgrA DBD (LytTR domain); experiment: X-ray crystallography; remark: listed apart in the source

B1: P3 promoter (SPR) (dsDNA)
DNA 1: TTCTTAACTAGTCGTTTTTTATTCTTAACTGTAA
DNA 2: TTACAGTTAAGAATAAAAAACGACTAGTTAAGAA
binding result (AgrA [1]): binds
binding result (AgrA~P [2]): binds

B2: P3_S2 (dsDNA)
DNA 1: ATTTACAGTTAAGAAT
DNA 2: AATTCTTAACTGTAAA
binding result (AgrA DBD (LytTR domain) [3]): binds

B3: P2-P3 intergenic region (negative control) (dsDNA)
DNA 1: TTTTTATGTTAAAATATTAAATACAAATTAC
DNA 2: GTAATTTGTATTTAATATTTTAACATAAAAA
binding result (AgrA~P [4]): no binding
binding result (AgrA [5]): no binding

B4: P2_S2 (dsDNA)
DNA 1: TTTAACAGTTAAGTAT
DNA 2: AATACTTAACTGTTAA
binding result (AgrA DBD (LytTR domain) [6]): binds

B5: P1 promoter (SPR) (dsDNA)
DNA 1: TCGAAATACCCGATGAAGTAAGTAGCATTAACTT
DNA 2: AAGTTAATGCTACTTACTTCATCGGGTATTTCGA
binding result (AgrA [1]): binds

B6: P2_S1 (dsDNA)
DNA 1: TCCTACAGTTAGGCAA
DNA 2: ATTGCCTAACTGTAGG
binding result (AgrA DBD (LytTR domain) [7]): binds

B7: P3_S1 (dsDNA)
DNA 1: TCGACTAGTTAAGAAA
DNA 2: ATTTCTTAACTAGTCG
binding result (AgrA DBD (LytTR domain) [8]): binds
